Test in all cases: native MS; nano-ESI native MS, 15 μM monomer, buffer-exchanged into 100 mM ammonium acetate pH 8.5, positive ion mode
The target in test [1] is CrRbcX-IIa(33–189) (Chlamydomonas reinhardtii).
The target of test [2] is CrRbcX-IIa(34–156) (Chlamydomonas reinhardtii).
The target in test [3] is CrRbcX-IIa(34–189) (Chlamydomonas reinhardtii).

The term stoichiometry N denotes a count of units in the complex or per binding partner.

In the case of CrRbcX-IIa(33–189) (natural protein), the stoichiometry N in test [1] was determined as 2.

As to CrRbcX-IIa(34–156) (domain or fragment), the stoichiometry N in test [2] is 4.

Take CrRbcX-IIa(34–189) (domain or fragment): the stoichiometry N in test [3] stood at 4.

These data come from paper PMC4549274.
